What was measured:
[1] = test system: Colo-205 cells; assay: Cell Titre-Glo (CTG) in vitro activity assay, Colo-205; assay type: cell-based, human; settings: 72 h, 10% FBS (FIG. 16)
Excerpt: (§1) The ADC non-binding control was an anti-CD19 ADC (DAR 2.0) composed of the same linker-drug combination as ADC-3.

[2] = test system: NCI-N87 gastric cancer xenograft; assay: In vivo efficacy study in NCI-N87 xenograft model; set-up: species or system mice; settings: single intravenous dose 2 mg/kg (53 nmol drug/kg), day 33
Excerpt: as §1

[3] = test system: BxPC3 xenograft; assay: In vivo efficacy study in BxPC3 xenograft model; set-up: species or system mice
Method: Conjugate doses of 0.4 mg/kg (5.3 nmol of conjugated drug/kg), 1 mg/kg (13 nmol of conjugated drug/kg) for ADC-2 and ADC-3, and 0.2 mg/kg (5.3 nmol of conjugated drug/kg) and 0.5 mg/kg (13 nmol of conjugated drug/kg) for Cantuzumab ravtansine were used.

[4] = test system: Colo-205 xenograft; settings: CB17 SCID mice, single intravenous dose 2 mg/kg (53 nmol drug/kg), calculation based on day 16
Method: Mice were subcutaneously inoculated into the right flank with 5×10^6 Colo-205 cells in 0.2 mL of DPBS mixed 1:1 with BD Matrigel. […] Tumour size was measured thrice weekly in two dimensions using a calliper, and the volume was expressed in mm^3 using the formula: V=0.5 a×b^2 where a and b are the long and short diameters of the tumour, respectively (see FIGS. 17A, 18 A and 19 A). The tumour size was then used for calculations of TGI (%) values (see Table 5). TGI, representing antitumor effectiveness, were calculated using the formula TGI (%)=[1-(Vtreat-t−Vtreat-1)/(Vcontrol-t−Vcontrol-1)]×100, where Vtreat-1 and Vcontrol-1 are the mean volumes of the treated and control groups on grouping day; Vtreat-t and Vcontrol-t are the mean volumes of the treated and control groups on a given day. Animals were euthanized when tumour volumes reached 2000 mm^3. Body weight was also measured thrice weekly as a measure of compound toxicity (see FIGS. 17 B, 18 B and 19 B).

[5] = molecular target: CanAg antigen (human) (UniProt P15941); assay: flow cytometry on CanAg positive Colo205 cells, AF488 anti-human IgG secondary, MFI curve
[6] = molecular target: CanAg antigen (human) (UniProt P15941); assay: flow cytometry on BxPC3 cells, 20 µg/mL PE conjugate, Quantibrite PE beads
[7] = molecular target: CanAg antigen (human) (UniProt P15941); assay: flow cytometry on HT-29 cells, 20 µg/mL PE conjugate, Quantibrite PE beads
[8] = molecular target: CanAg antigen (human) (UniProt P15941); assay: flow cytometry on SNU-16 cells, 20 µg/mL PE conjugate, Quantibrite PE beads
[9] = molecular target: CanAg antigen (human) (UniProt P15941); assay: flow cytometry on N87 cells, 20 µg/mL PE conjugate, Quantibrite PE beads
[10] = molecular target: CanAg antigen (human) (UniProt P15941); assay: flow cytometry on Colo205 cells, 20 µg/mL PE conjugate, Quantibrite PE beads

B1: Cantuzumab ravtansine: humanised ADC targeting CanAg: cantuzumab (HuC242) conjugated to the cytotoxic maytansinoid drug ravtansine; DAR 4.0 (conjugate, chains of the INN, looked up)
VH: QVQLVQSGAEVKKPGETVKISCKASDYTFTYYGMNWVKQAPGQGLKWMGWIDTTTGEPTYAQKFQGRIAFSLETSASTAYLQIKSLKSEDTATYFCARRGPYNWYFDVWGQGTTVTVSS
VL: DIVMTQSPLSVPVTPGEPVSISCRSSKSLLHSNGNTYLYWFLQRPGQSPQLLIYRMSNLVSGVPDRFSGSGSGTAFTLRISRVEAEDVGVYYCLQHLEYPFTFGPGTKLELK
modifications: ravtansine maytansinoid payload, DAR 4.0
notes: humanised ADC targeting CanAg: cantuzumab (HuC242) conjugated to the cytotoxic maytansinoid drug ravtansine; DAR 4.0
B1 was tested, and the cells killed [1] was 75%, the “TGI [%] at 33 day” value [2] was 43% and the “anti-tumour response (in words)” value ([3]; 0.2 mg/kg and 0.5 mg/kg, in comparison to ADC-2 and ADC-3 at the same conjugated drug doses (FIG. 20)) was “weak anti-tumour response”. For the same molecule, the “time at which tumour started to regrow” value ([3]; 2 mg/kg (53 nmol drug/kg)) was over 32 days, the “tumour inhibition (in words)” value ([3]; 2 mg/kg (53 nmol drug/kg) (FIG. 21 A)) was “complete tumour inhibition” and the “TGI [%] at 29 or 32* day” value ([3]; single intravenous dose 0.2 mg/kg (5.3 nmol drug/kg), day 29) was 24.3%. For the same molecule, the “TGI [%] at 29 or 32* day” value ([3]; single intravenous dose 0.5 mg/kg (13 nmol drug/kg), day 29) was 34.6%, the “TGI [%] at 29 or 32* day” value ([3]; single intravenous dose 2 mg/kg (53 nmol drug/kg), day 32) was 104* % and the “TGI [%] at 15 day” value [4] was 40%.

B2: HC1 + LC1 (antibody, human IgG1, kappa, V domains shown)
VH: QVQLVQSGAEVKKPGASVKVSCKASDYTFTYYGINWVRQAPGQGLEWMGWIDTTTGEPNYAQKLQGRVTFTLDTSASTAYMELRSLRSDDTAVYYCARRGPYNWYFDVWGQGTLVTVSS
VL: DIVMTQTPLSLPVTPGEPASISCRSSKSLLHSNGNTYLYWYLQKPGQSPQLLIYRMSNRASGVPDRFSGSGSGTDFTLKISRVEAEDVGVYYCLQHLEYPFTFGPGTKVDIKR
Work on B2 yielded an EC50 [5] of 0.274 µg/mL.

B3: HC2 + LC1 (antibody, human IgG1, kappa, V domains shown)
VH: QVQLVQSGAEVKKPGASVKVSCKASDYTFTYYGMNWVRQAPGQGLEWMGWIDTTTGEPSYAQKFQGRVTFTLDTSASTVYMELSSLRSEDTAVYYCARRGPYNWYFDVWGQGTLVTVSS
VL: DIVMTQTPLSLPVTPGEPASISCRSSKSLLHSNGNTYLYWYLQKPGQSPQLLIYRMSNRASGVPDRFSGSGSGTDFTLKISRVEAEDVGVYYCLQHLEYPFTFGPGTKVDIKR
B3 gave an EC50 [5] of 0.351 µg/mL.

B4: HC3 + LC2 (antibody, human IgG1, kappa, V domains shown)
VH: QVQLVQSGAEVKKPGASVKVSCKASDYTFTYYGINWVRQATGQGLEWMGWIDTTTGEPTYAQKFQGRVTFTLETSISTAYMELSSLRSEDTAVYYCARRGPYNWYFDVWGAGTLVTVSS
VL: DIVMTQSPLSLPVTPGEPASISCRSSKSLLHSNGNTYLYWYLQKPGQSPQLLIYRMSNLASGVPDRFSGSGSGTDFTLKISRVEAEDVGVYYCLQHLEYPFTFGPGTKVDIKR
For B4, the EC50 [5] was 0.327 µg/mL.

B5: HC3 + LC1 (antibody, human IgG1, kappa, V domains shown)
VH: QVQLVQSGAEVKKPGASVKVSCKASDYTFTYYGINWVRQATGQGLEWMGWIDTTTGEPTYAQKFQGRVTFTLETSISTAYMELSSLRSEDTAVYYCARRGPYNWYFDVWGAGTLVTVSS
VL: DIVMTQTPLSLPVTPGEPASISCRSSKSLLHSNGNTYLYWYLQKPGQSPQLLIYRMSNRASGVPDRFSGSGSGTDFTLKISRVEAEDVGVYYCLQHLEYPFTFGPGTKVDIKR
Molecule B5 has an EC50 [5] of 0.266 µg/mL.

B6: HC1 + LC3 (antibody, human IgG1, kappa, V domains shown)
VH: QVQLVQSGAEVKKPGASVKVSCKASDYTFTYYGINWVRQAPGQGLEWMGWIDTTTGEPNYAQKLQGRVTFTLDTSASTAYMELRSLRSDDTAVYYCARRGPYNWYFDVWGQGTLVTVSS
VL: DIVMTQTPLSLSVTPGQPASISCKSSKSLLHSNGNTYLYWYLQKPGQSPQLLIYRMSNLFSGVPDRFSGSGSGTDFTLKISRVEAEDVGVYYCLQHLEYPFTFGPGTKVDIKR
For B6, the EC50 [5] was 0.305 µg/mL.

B7: HC3 + LC3 (antibody, human IgG1, kappa, V domains shown)
VH: QVQLVQSGAEVKKPGASVKVSCKASDYTFTYYGINWVRQATGQGLEWMGWIDTTTGEPTYAQKFQGRVTFTLETSISTAYMELSSLRSEDTAVYYCARRGPYNWYFDVWGAGTLVTVSS
VL: DIVMTQTPLSLSVTPGQPASISCKSSKSLLHSNGNTYLYWYLQKPGQSPQLLIYRMSNLFSGVPDRFSGSGSGTDFTLKISRVEAEDVGVYYCLQHLEYPFTFGPGTKVDIKR
In the case of B7, the EC50 [5] is reported as 0.294 µg/mL.

B8: HC2 + LC3 (antibody, human IgG1, kappa, V domains shown)
VH: QVQLVQSGAEVKKPGASVKVSCKASDYTFTYYGMNWVRQAPGQGLEWMGWIDTTTGEPSYAQKFQGRVTFTLDTSASTVYMELSSLRSEDTAVYYCARRGPYNWYFDVWGQGTLVTVSS
VL: DIVMTQTPLSLSVTPGQPASISCKSSKSLLHSNGNTYLYWYLQKPGQSPQLLIYRMSNLFSGVPDRFSGSGSGTDFTLKISRVEAEDVGVYYCLQHLEYPFTFGPGTKVDIKR
In the case of B8, the EC50 [5] is reported as 0.354 µg/mL.

B9: Phycoerythrin (PE)-conjugated HC1LC1 antibody (antibody, V domains shown)
VH: QVQLVQSGAEVKKPGASVKVSCKASDYTFTYYGINWVRQAPGQGLEWMGWIDTTTGEPNYAQKLQGRVTFTLDTSASTAYMELRSLRSDDTAVYYCARRGPYNWYFDVWGQGTLVTVSS
VL: DIVMTQTPLSLPVTPGEPASISCRSSKSLLHSNGNTYLYWYLQKPGQSPQLLIYRMSNRASGVPDRFSGSGSGTDFTLKISRVEAEDVGVYYCLQHLEYPFTFGPGTKVDIKR
modifications: R-phycoerythrin conjugated by Lightning-Link kit; sites not stated
B9 showed a PE molecules per cell (PE molecules per cell) [6] of 75300, a PE molecules per cell (PE molecules per cell) [7] of 626000 and a PE molecules per cell (PE molecules per cell) [8] of 1.15e+07. For the same molecule, the PE molecules per cell (PE molecules per cell) [9] was 2570 and the PE molecules per cell (PE molecules per cell) [10] was 2.61e+06.

B10: HC1 + LC2 (antibody, human IgG1, kappa, V domains shown)
VH: QVQLVQSGAEVKKPGASVKVSCKASDYTFTYYGINWVRQAPGQGLEWMGWIDTTTGEPNYAQKLQGRVTFTLDTSASTAYMELRSLRSDDTAVYYCARRGPYNWYFDVWGQGTLVTVSS
VL: DIVMTQSPLSLPVTPGEPASISCRSSKSLLHSNGNTYLYWYLQKPGQSPQLLIYRMSNLASGVPDRFSGSGSGTDFTLKISRVEAEDVGVYYCLQHLEYPFTFGPGTKVDIKR
With B10 the EC50 [5] was 0.268 µg/mL.

B11: HC2 + LC2 (antibody, human IgG1, kappa, V domains shown)
VH: QVQLVQSGAEVKKPGASVKVSCKASDYTFTYYGMNWVRQAPGQGLEWMGWIDTTTGEPSYAQKFQGRVTFTLDTSASTVYMELSSLRSEDTAVYYCARRGPYNWYFDVWGQGTLVTVSS
VL: DIVMTQSPLSLPVTPGEPASISCRSSKSLLHSNGNTYLYWYLQKPGQSPQLLIYRMSNLASGVPDRFSGSGSGTDFTLKISRVEAEDVGVYYCLQHLEYPFTFGPGTKVDIKR
With B11 the EC50 [5] was 0.408 µg/mL.

Source: patent US20250213711A1, “ANTI-CANAG ANTIBODY CONJUGATE” (IKSUDA THERAPEUTICS LIMITED, priority 2022, published 2025)
